In data set [1] the test system is lysosomal enzyme activity (rhGAA, I2S). Nature of the data set: Enzyme activity of lysosomal enzyme after conjugation or deglycosylation. It is filed as biochemical, human. As to conditions: after conjugation of variant IGF2 peptide (data not shown). An excerpt:
The high-mannose type N-glycans on rhGAA is problematic because it is believed that these carbohydrates cause the protein to be rapidly cleared from the circulation via macrophage and splenic mannose receptors. […] Deglycosylation of rhGAA can be performed after the enzyme is modified with S-Hynic and purified (via size exclusion chromatography or dialysis to remove excess crosslinker). This strategy allows for complete deglycosylation of rhGAA over 1-5 days using EndoF or EndoH without affecting enzyme activity. The deglycosylated hydrazide-modified rhGAA is then conjugated to PEG4-benzaldehyde-modified IGF-2 peptides. Alternatively, rhGAA deglycosylation can be performed concurrently during the conjugation of PEG4-benzaldehyde-modified IGF-2 peptide to hydrazide-modified rhGAA using high concentrations of EndoF or EndoH. Deglycosylated, IGF2 peptide-conjugated rhGAA is then purified by gel filtration chromatography or dialysis to remove excess phosphine-modified IGF-2 peptides and stored in acidic pH buffer (50 mM sodium phosphate, pH 6.2/100 mM NaCl/0.05% Polysorbate-80). […]
To assess the functional effects of IGF2 peptide for the cellular uptake of exogenous lysosomal enzymes, the internalization of IGF2-conjugated rbGAA (vIGF2-rhGAA) was evaluated in L6 rat skeletal muscle myoblasts. […]

The target in another data set is IGF-2/CI-MPR (Homo sapiens, UniProt P11717). As to conditions: ligand affinity for IGF-2/CI-MPR; read-out: Binding Affinity (Apparent Kd; nM); cited from earlier work.
Another data set relates to Fabry disease. The following applies: 1 mg/kg body weight every other week; cited from earlier work.

The text below walks through data of US10660972B2, “Methods for coupling targeting peptides onto recombinant lysosomal enzymes for improved treatments of lysosomal storage diseases” (AMICUS THERAPEUTICS, INC., priority 2011, dated 2020).

Sequence of IGF-2/CI-MPR (P11717 41-2491): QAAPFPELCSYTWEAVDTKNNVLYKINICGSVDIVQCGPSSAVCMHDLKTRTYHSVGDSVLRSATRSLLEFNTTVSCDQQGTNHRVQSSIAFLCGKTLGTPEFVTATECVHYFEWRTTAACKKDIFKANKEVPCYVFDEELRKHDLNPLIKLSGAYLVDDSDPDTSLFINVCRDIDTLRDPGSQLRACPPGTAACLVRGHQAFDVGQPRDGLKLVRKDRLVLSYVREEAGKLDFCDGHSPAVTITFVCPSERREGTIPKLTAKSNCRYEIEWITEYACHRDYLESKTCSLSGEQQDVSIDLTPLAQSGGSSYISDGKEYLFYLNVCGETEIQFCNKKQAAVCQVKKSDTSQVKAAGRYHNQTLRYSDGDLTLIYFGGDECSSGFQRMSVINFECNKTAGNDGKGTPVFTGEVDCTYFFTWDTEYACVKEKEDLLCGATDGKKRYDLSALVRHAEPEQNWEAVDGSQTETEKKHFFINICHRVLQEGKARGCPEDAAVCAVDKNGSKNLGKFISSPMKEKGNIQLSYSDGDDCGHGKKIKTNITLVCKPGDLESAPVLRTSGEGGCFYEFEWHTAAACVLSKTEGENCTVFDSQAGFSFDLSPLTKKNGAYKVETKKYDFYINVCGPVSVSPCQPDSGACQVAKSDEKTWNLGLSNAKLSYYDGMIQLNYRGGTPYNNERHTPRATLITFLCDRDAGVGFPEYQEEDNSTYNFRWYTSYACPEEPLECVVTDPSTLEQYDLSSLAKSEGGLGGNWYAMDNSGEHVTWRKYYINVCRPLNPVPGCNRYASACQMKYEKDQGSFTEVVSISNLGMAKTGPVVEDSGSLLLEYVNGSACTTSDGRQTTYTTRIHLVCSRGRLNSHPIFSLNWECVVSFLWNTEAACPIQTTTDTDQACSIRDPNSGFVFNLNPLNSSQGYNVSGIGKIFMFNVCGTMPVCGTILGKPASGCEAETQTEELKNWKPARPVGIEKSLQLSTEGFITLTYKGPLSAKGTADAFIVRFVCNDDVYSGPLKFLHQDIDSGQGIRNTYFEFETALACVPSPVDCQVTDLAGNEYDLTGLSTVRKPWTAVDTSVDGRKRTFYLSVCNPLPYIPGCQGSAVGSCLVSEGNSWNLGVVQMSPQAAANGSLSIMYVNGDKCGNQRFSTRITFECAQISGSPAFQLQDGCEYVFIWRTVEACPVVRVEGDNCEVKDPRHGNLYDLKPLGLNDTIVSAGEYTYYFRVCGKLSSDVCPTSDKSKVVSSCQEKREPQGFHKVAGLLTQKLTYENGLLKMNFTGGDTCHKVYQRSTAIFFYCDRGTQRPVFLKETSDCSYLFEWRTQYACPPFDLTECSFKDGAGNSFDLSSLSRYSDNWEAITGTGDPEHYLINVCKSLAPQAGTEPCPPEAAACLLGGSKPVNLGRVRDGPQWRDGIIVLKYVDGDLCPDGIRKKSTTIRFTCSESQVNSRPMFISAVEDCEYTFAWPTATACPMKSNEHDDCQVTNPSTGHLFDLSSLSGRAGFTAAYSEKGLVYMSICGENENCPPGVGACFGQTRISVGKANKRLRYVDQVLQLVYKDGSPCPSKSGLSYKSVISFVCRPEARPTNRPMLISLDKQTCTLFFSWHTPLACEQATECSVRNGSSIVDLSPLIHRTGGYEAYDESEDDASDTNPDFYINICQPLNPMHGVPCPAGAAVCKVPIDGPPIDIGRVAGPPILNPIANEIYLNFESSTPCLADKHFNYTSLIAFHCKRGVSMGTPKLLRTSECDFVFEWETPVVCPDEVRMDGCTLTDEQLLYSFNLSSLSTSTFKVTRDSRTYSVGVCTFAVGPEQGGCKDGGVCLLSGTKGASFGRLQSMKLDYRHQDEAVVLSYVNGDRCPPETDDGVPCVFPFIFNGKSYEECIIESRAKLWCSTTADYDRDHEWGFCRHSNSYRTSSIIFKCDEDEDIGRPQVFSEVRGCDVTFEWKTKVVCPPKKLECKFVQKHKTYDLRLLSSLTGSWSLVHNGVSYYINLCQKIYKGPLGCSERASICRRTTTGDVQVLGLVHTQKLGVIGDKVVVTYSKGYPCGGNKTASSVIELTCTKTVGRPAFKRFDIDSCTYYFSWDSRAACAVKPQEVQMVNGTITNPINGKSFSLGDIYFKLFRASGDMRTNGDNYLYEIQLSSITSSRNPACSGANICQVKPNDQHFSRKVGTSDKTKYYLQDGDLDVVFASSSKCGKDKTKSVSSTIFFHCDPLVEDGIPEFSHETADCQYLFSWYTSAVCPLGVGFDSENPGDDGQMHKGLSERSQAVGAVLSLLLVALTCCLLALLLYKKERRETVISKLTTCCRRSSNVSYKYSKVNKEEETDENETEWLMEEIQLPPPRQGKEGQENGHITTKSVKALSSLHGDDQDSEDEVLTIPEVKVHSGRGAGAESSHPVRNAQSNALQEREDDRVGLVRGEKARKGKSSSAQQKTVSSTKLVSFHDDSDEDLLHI

B1: I2S: Recombinant human acid iduronidate 2-sulfatase (protein, UniProt P22304 34-455; P22304 456-550, looked up)
Iduronate 2-sulfatase 42 kDa …: TDALNVLLIIVDDLRPSLGCYGDKLVRSPNIDQLASHSLLFQNAFAQQAVCAPSRVSFLTGRRPDTTRLYDFNSYWRVHAGNFSTIPQYFKENGYVTMSVGKVFHPGISSNHTDDSPYSWSFPPYHPSSEKYENTKTCRGPDGELHANLLCPVDVLDVPEGTLPDKQSTEQAIQLLEKMKTSASPFFLAVGYHKPHIPFRYPKEFQKLYPLENITLAPDPEVPDGLPPVAYNPWMDIRQREDVQALNISVPYGPIPVDFQRKIRQSYFASVSYLDTQVGRLLSALDDLQLANSTIIAFTSDHGWALGEHGEWAKYSNFDVATHVPLIFYVPGRTASLPEAGEKLFPYLDPFDSASQLMEPGRQSMDLVELVSLFPTLAGLAGLQVPPRCPVPSFHVELCREGKNLLKHFRFRDLEEDPYLPG
Iduronate 2-sulfatase 14 kDa …: NPRELIAYSQYPRPSDIPQWNSDKPSLKDIKIMGYSIRTIDYRYTVWVGFNPDEFLANFSDIHAGELYFVDSDPLQDHNMYNDSQGGDLFQLLMP
In the case of B1, the “effect of chemical conjugation of variant IGF2 peptide on enzyme activity” value in data set [1] is listed as “did not affect enzyme activity”.

B2: beta-galactosidase: lysosomal enzyme listed as ligand of IGF-2/CI-MPR (protein, UniProt P16278 29-677, looked up)
Beta-galactosidase: QRMFEIDYSRDSFLKDGQPFRYISGSIHYSRVPRFYWKDRLLKMKMAGLNAIQTYVPWNFHEPWPGQYQFSEDHDVEYFLRLAHELGLLVILRPGPYICAEWEMGGLPAWLLEKESILLRSSDPDYLAAVDKWLGVLLPKMKPLLYQNGGPVITVQVENEYGSYFACDFDYLRFLQKRFRHHLGDDVVLFTTDGAHKTFLKCGALQGLYTTVDFGTGSNITDAFLSQRKCEPKGPLINSEFYTGWLDHWGQPHSTIKTEAVASSLYDILARGASVNLYMFIGGTNFAYWNGANSPYAAQPTSYDYDAPLSEAGDLTEKYFALRNIIQKFEKVPEGPIPPSTPKFAYGKVTLEKLKTVGAALDILCPSGPIKSLYPLTFIQVKQHYGFVLYRTTLPQDCSNPAPLSSPLNGVHDRAYVAVDGIPQGVLERNNVITLNITGKAGATLDLLVENMGRVNYGAYINDFKGLVSNLTLSSNILTDWTIFPLDTEDAVRSHLGGWGHRDSGHHDEAWAHNSSNYTLPAFYMGNFSIPSGIPDLPQDTFIQFPGWTKGQVWINGFNLGRYWPARGPQLTLFVPQHILMTSAPNTITVLELEWAPCSSDDPELCAVTFVDRPVIGSSVTYDHPSKPVEKRLMPPPPQKNKDSWLDHV
Regarding B2, the Kd with IGF-2/CI-MPR was 20 nM.

B3: Fabrazyme: recombinant acid α-galactosidase A; Genzyme Corp. (protein, UniProt P06280 32-429, looked up)
Alpha-galactosidase A: LDNGLARTPTMGWLHWERFMCNLDCQEEPDSCISEKLFMEMAELMVSEGWKDAGYEYLCIDDCWMAPQRDSEGRLQADPQRFPHGIRQLANYVHSKGLKLGIYADVGNKTCAGFPGSFGYYDIDAQTFADWGVDLLKFDGCYCDSLENLADGYKHMSLALNRTGRSIVYSCEWPLYMWPFQKPNYTEIRQYCNHWRNFADIDDSWKSIKSILDWTSFNQERIVDVAGPGGWNDPDMLVIGNFGLSWNQQVTQMALWAIMAAPLFMSNDLRHISPQAKALLQDKDVIAINQDPLGKQGYQLRQGDNFEVWERPLSGLAWAVAMINRQEIGGPRSYTIAVASLGKGVACNPACFITQLLPVKRKLGFYEWTSRLRSHINPTGTVLLQLENTMQMSLKDLL
For B3, the “clinical effectiveness in Fabry disease” value with Fabry disease is on record as “sufficient to clear accumulated substrate from endothelial cells”.
